# Target: nsP13 helicase (SARS-CoV-2) (UniProt P0DTD1)
substance,measurement,value
ssDNA-F (25-nt),K half,53 nM

# Reference: paper PMC12274814
